Experimental data taken from the DeepSol protein solubility set.

Experiment: soluble on expression in E. coli; label from the status in PepcDB or PDB records

| Sequence | soluble on expression in E. coli |
| --- | --- |
| MSLNARTNIALLANSSSPLHPLQELLAVAGYQCNVFHAGRDLIQGLGHDTYEMLLIDRELADISAIDVIRTVRAVRNRDVPIVIFASENNDDDLVEALDAGADDYVLRPLAARVLLARIAALRRRMSGTRLRGAMPLRAGPYELSNPGRYATLNGGRIPMTPKEFDLAMLMFANAGRILASRRIEHTIWGHDLPPYSRALAGLVSRMRRTLNLCAENGVTVSVVYAQGYRLDILDEGHHHHHH | not soluble |
| MAGTVEGEKIDVGFAGKRCIHSRNCVLGDPHVFVPNAPGQWIHPDAASVEKIVAIAESCPSGAITYVRKDGGPQEQPPVVNTVRLRENGPLAVHAEIVLDGETFYRATLCRCGASENKPFCDGSHGKAGFTATGEPALKDAPALEARNGPLKVTPTTNGPLKLEGNVEIVTGTGHTIDRTQRTFLCRCGHSANKPFCDGSHKKIGFVA | not soluble |
| MGSDKIHHHHHHMISRTMQQQVNSSSIIRAMFEEGKRLSALYGADNVYDFSLGNPNVEPPAEVKQAIMDILNEENSTTVHGYMNNSGFEDVRGAIAASLNQRFATGFAADNILMTVGAAGGLNVIFKTLLNPEDEVLTFAPFFGEYRNYVQNYQGQLIVVSPNTKDFQPNLEELKEKISPRTKAVLINSPNNPTGVVYSAETIAALVDILRAKQEEYGTVIYLIGDEPYRELAYDQVEVPYLTKYYENTIVGYSYSKSLSLPGERIGYLVIPREAADYENLIAAANIANRILGFVNAPSLFQRVIAKCLDAQVNLDSYNRNRELLYNALVSYGYQCIKPEGAFYLFIKTPLENDLEFCTLAKSKNILIVPGTSFACPGYARIAYCVAYETIERALPGFEALINEVSWASA | not soluble |
| SLETKVAARDLSSLLSHCEAPVAALTVTAFKCKASACSVAPAPGSNTGLGALMSMAQAAQGLQTFPNIGDGLSNALTTALKTTGCFKVMAREDFEDLRREAEAAGITLKSASADYLVTGAITSLAVGAKTQSFGGGFVPLVGAVSRSTKSANISIDVRLVDVKASEVKASQTFDVSNERSSWGAGGAGWGGSGALFGAASSTQSPELDSVANESVIQAANYIVTQVAGSAAIPPVAAITK | soluble |
| MKRLIGILLCNLFILTACSASVDKTSNSTKTTDYKIENGETLKVPEKPKRVAVLTGFYVGDFIKLGIKPIAVSDITKDSSILKPYLKGVDYIGENDVERVAKAKPDLIVVDAMDKNIKKYQKIAPTIPYTYNKYNHKEILKEIGKLTNNEDKAKKWIEEWDDKTRKDKKEIQSKIGQATASVFEPDEKQIYIYNSTWGRGLDIVHDAFGMPMTKQYKDKLQEDKKGYASISKENISKYAGDYIFLSKPSYGKFDFEKTHTWQNIEAVKKGHVISYKAEDYWFTDPITLEHLRSKLKKEILNKK | not soluble |
| MSDVKGKSTSGRGLTPKQEKFCQLYIELGNASEAYRQSYDCSKMTTEVINVKASELLNKNGKITVRVEELRQAHQQRHNLTLDNIIADLQEYRDICMGRKPLTITTVVKNAQEGTAQSVNTECFVFEPTGANKALELLGKHLGMFTNKVDVTTDGKPLPTVINVTFSDEPA | not soluble |
| MGSDKIHHHHHHMRFAPPNPLRIADRASGLNSLSVRSYNERLVLSLLLQNEATTRLEIGEKTGLSAQTISVIVRSLEQEGLVVRGEAQKGRVGPPTTPLMLNSEGAYSVGVSVGYHNTHIVVVDFIGNVQHHRVMPHKAADTFDAPEALALEIRLAVAGLSESRQARIAGVGLALPTPPIRSEPDHDVLHRYLEAEFGLPVFVQNDITAAAGGESLFGTARQLQDFLFFYLGARLHCRLVLNHQIYNGNSPLSYDVGVLALERRLPADSAMAEKLWGQDLSWPPLEATLADWQQACAENLIQLTQSLLQFIELRTVVLSSFVPAAICEALCRLVRQEIPSVNAVVGRTSAAPKAVGAASLPFSSRFMVN | not soluble |
| MGACRRIFKNYEPCELTICVTIICEPRSPPKFDHWKISKPGCPPKIISCSKATNNDVNREKRSRRKLVKKRTPSEVIEKLEEQEGSENCENVPFDKPLLHSDSATLICDEVATSRSPFEISTNEVENVDIQSEPRDRHVSITSMESVAGLGEADDQDDVTILKGLEEVHEIEVDKTVIEESIPNQPKGQRFDLLSNGDVTIPAMIMNDVDGPKKKLLVRRKKKSKTPDSPPQYRDYTETSIYMYIEMDKQNVGEFVWDQQCTRIDALVAPIVELDRMTTPEIPLEIELFD | not soluble |
| MSMENFAQLLEESFTLQEMNPGEVITAEVVAIDQNFVTVNAGLKSESLIDVAEFKNAQGEIEVKVGDFVTVTIESVENGFGETKLSREKAKRAADWIALEEAMENGNILSGIINGKVKGGLTVMISSIRAFLPGSLVDVRPVKDTSHFEGKEIEFKVIKLDKKRNNVVVSRRAVLEATLGEERKALLENLQEGSVIKGIVKNITDYGAFVDLGGIDGLLHITDLAWRRVKHPSEVLEVGQEVEAKVLKFDQEKQRVSLGMKQLGEDPWSGLTRRYPQATRLFGKVSNLTDYGAFVEIEQGIEGLVHVSEMDWTNKNVHPSKVVQLGDEVEVMILEIDEGRRRISLGMKQCQANPWEEFAANHNKGDKISGAVKSITDFGVFVGLPGGIDGLVHLSDLSWTESGEEAVRKYKKGEEVEAVVLAIDVEKERISLGIKQLEGDPFGNFISVNDKGSLVKGSVKSVDAKGAVIALSDEVEGYLPASEFAADRVEDLTTKLKEGDEVEAVIVTVDRKNRSIKLSVKAKDAKESREALNSVNAAANANAGTTSLGDLLKAKLSGEQELEHHHHHH | not soluble |
| MGSDKIHHHHHHETEAPQVTTSSRPAVEIKYNDPRDPFEEVNRTMWDFNYLFLDRYVIRPVAHGYKDYVPNPVRTGVNNFVYNLEEPSSLVNNTLQGKWGWAANAGGRFTVNTTIGLLGLVDVADMMGMHRKQDDFNEVLGYYGTPNGPYFMAPFYGPIVTREIASDWVDGLYFPLSELTIWQSVLKWGLKGLDARSKAIDQERLLDNALDPYAFVKDAYLQHMDYKVFDGDVPSSQADDELLDEYLDELE | not soluble |
| MSLSNGELAILVFGYPETMANQVIAYFQEFGTILEDFEVLRKPQAMTVGLQDKQFVPIFSGNSWTKITYDNPASAVDALLENGAVFNGVLLGVIPYTKDAVERLQKRKLTSSEDIGSGITTAAAETKHKDQGTIENDIPSQYMAKLDIKDGSNLFISTNTTSGTKVDPKKEQKKGVVGTVLRYFFGFNEGHHHHHH | soluble |
| MSLTDEQFNPQDEEIEIEAIGVEVSCQPIELYKVLKIANAVSGGGEAKHVISEGYVFVNGDVETRKRCKVFDGDLIEFNQEFYLVICDAPVTEPESFDTQPELASSHKPTKTQKKSSANTSAKSKPSKNNKTVSGQKKAKNDKKSPQSDSKSPSGRSAIRFFEGGSHHHHHH | soluble |
| MAHHHHHHMLSGAEELISDLFRRTSTTSNAVEFILSSNSAAYHDVMQRICNSNQPQLVKGILRTAQSLLPTELFQVFGKSVVPVLLLFAPAVLRRVGELLAAPKETPLSTCGEWDAFTSFITGIHCKLLASPECRATNVRSLPPPPVAARHTPSWSKVFHGEENVSEGVPPPQPSTDCEVNVTAIGTDNYGSLLCTIVCGLSHLLACVATPPCVIGGPGLTTLCNEVMRLLSSTPVFCYASKDANLQIACVSLLLSVLNLGKAVQGCVASSFMPTMRRWFDLTLYSANAVCIQLLFPYILHARAHR | not soluble |
| MVLEGIHSHDPQARDIAIQYYHAAETTIYDYIARRHPQSAQCVTDFMSTVMSGLSAKAREGHSIEQLCATAALAGEAIKTLLKE | not soluble |
| MGKLNLYQMKKVEIIVRGEDLDFVLDLLEKAGVKGYTIIHNLSGKGSHGFHEGHLLFNEEDVLDMVISVMPEEKVEAILEGLTPFFNKHSGVVFVSDVQVSRLEKFKNG | not soluble |
| MGHHHHHHSHMAIQVDKFNFESFPESPGEKGQFANPKQLEEERREARGLEIHSKLGICWRIPSLKRSGEASVEGLLNQLVLEHLQLAPLQWDVLVDGQPCDREAVAACQVGDPVRLEVRLTNRSPRSVGPFALTVVPFQDHQNGVHNYDLHDTVSFVGSSTFYLDAVQPSGQSACLGALLFLYTGDFFLHIRFHEDSTSKELPPSWFCLPSVHVCALEAQA | not soluble |
| MSLGFKEYYRVFPTYTDINSQEYRSRIETLEPLLMKYMKKRGKVLDLACGVGGFSFLLEDYGFEVVGVDISEDMIRKAREYAKSRESNVEFIVGDARKLSFEDKTFDYVIFIDSIVHFEPLELNQVFKEVRRVLKPSGKFIMYFTDLRELLPRLKESLVVGQKYWISKVIPDQEERTVVIEFKSEQDSFRVRFNVWGKTGVELLAKLYFTKEAEEKVGNYSYLTVYNPKEGHHHHHH | soluble |
| MKFLTFVNRVDWWLNVKKLLMGNEAIAYGALEAGVSFATGYPGTPSTEVIETIARLKPEVFAEWAPNEKVALEEAAGVSYAGLRSLVTMKCVGLNVAADPLMSLAYSGVEGGLVILVADDPGPHTSQTEQDDRYYGKLALLPVLEPYDPQEAHDLIIYAYELSEKYKVPIIFRTTTRVNHTTADVEVGEFKELKREPKFKKDIERYVRASMEGNRKRHKWLNETLKRIEEEFNTLRFNWIEGEGRVGIIVEGAPYNYVKEVVPQIEEDFKILKLSTPHPLPRKLVVEFLRSVDVALVVEEGAPFLEEEIKVVAYEEGLNVPIYGKRTGHLPLEGELTPRLVRNAILKLLGKEREEVKLPKEVEEAKALAPKRPPVMCPGCPHRGTYRALLDALRELGYGKFDIPIHGDIGCYALSLLPPLEAIWTEFVMGASISLANGQSVAMGKKIVATIGDSTFFHNGIQPLIDAVYKDLDVLVIILDNRTTAMTGHQPHPGTGGSETGRKFREIDIESVVRGIGVKYVKTVDPYNLKETKEAIKEAMKVKGPAVIIAKRECVIPVIRRGEIGEIPVVVEDRCTGCKACILLTGCPALVYEPEKKKVRIDPLICTGCGVCNQLCPFDAI | not soluble |
| MVEKEIDYLCSQYGLKPTNLSKFTLKLNFPDPDLKYGFSGEDNSLYLPLYHELNVSSSLPGEMFCMVYIQLILDPDKVNSEYLADFFNNPLGLKIRKGWEARGFVLRPETRNSEEVQESQQTSALNNPALLSGKSGFSGISYPVTGETSSENGDSIYSICQGSDGMTYVLPDSASPVPEILSFPDLDLESLMHSKLYLPDLQVQLEILKIKALTKELISQLNIFECRLSTYPKSMSHIRRKLELIREAVKLANDSDYILELIRRGESKRLEFKSTLRMNLMTGKPDWNIQHAVLKTIVAYLNTDGGILLVGVSNDGEILGIKNDGFPNEDRFLLHFKQLIKQHIGLNYSPMIEYTLVPVNGKEVLEIACKKSDEAVFLKTDKNDEEFYIRTGPSSERLTGSKLIEYVNRRYNGKSDAAALEHHHHHH | soluble |
| MGSDKIHHHHHHMAISVTAEEKQILAGVTIPPRPQALLDISKEAKQEYPDVSKIAKAISEDVGISAAVLQVVNSVAFRRNNQISSIHQAVMTLGIKRIFPLVKAVAIKGALPENPMLNEFWQSSSMVASACTLYANLLGKANLSDNAYMLGLFHNAGVPVMLQAFPAYQALLMRGITEGWGEVASLEVQEFKTSHTTLGALLAQQWELPKPMVEVIYYLHDIDGIFTSGELSEVGLYLLAILKLARSSVDGVIRGECNTDEWLKIQDPLLAFLNLDEVQLDEFREEVAEKLRSEG | not soluble |
| MINAKVHVAVPTAFYADESLNISATLAHAQYLLDHQIESVMLCGSTGEQHSLDLDEKIALARAVDRAEWPQGAEIIFGVSAIRQSHAVRLAQVVAQCERIDAILVGFPPYIRPTQDQARRFVTAITQTAGKPAIIYNNPARTGFDASASTLAQLCMLPDVIGVKDPGGAPKLAEVSREIAPFRARYYAGGELDLHAKVAHGYTYLSSIVGNIAPEETVAWFNALRHGEEYESSSRLQELIDQLFAHHPIQFLKEKISTQEGINMGSCRLPLGPIAD | not soluble |
